These results are taken from the supplement of paper PMC9112550, “Optimization of the antimicrobial peptide Bac7 by deep mutational scanning” (BMC Biology, 2022).

The subject of the series is Escherichia coli TOP10. Put plainly: shrunken log2 fold change of peptide-encoding DNA abundance (4.5 h post-induction vs induction); higher = less antimicrobial activity (less host growth inhibition). As to conditions: time post-induction: 4.5 h; library: site-saturation at positions 5, 18, 19, 20.
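Note: peptides expressed intracellularly from a pBAD plasmid library in pooled LB shake-flask culture, induced with 0.3% L-arabinose, DNA abundance read by NGS, three biological replicates, DESeq2 with apeglm shrinkage.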

For RRIRVRPPRLPRPRPRPLKMPRP, the “shrunken log2 fold change” value was -0.561.

As for RRIRPRPPRLPRPRPRPAETPRP, the “shrunken log2 fold change” value was -0.0458.

Take RRIRNRPPRLPRPRPRPVAKPRP: the “shrunken log2 fold change” value was -0.107.

Take RRIRTRPPRLPRPRPRPNRQPRP: the “shrunken log2 fold change” value amounted to 0.0749.

RRIRRRPPRLPRPRPRPQMTPRP: the “shrunken log2 fold change” value stood at 0.238.

RRIRFRPPRLPRPRPRPKADPRP: the “shrunken log2 fold change” value is -0.0989.

RRIRDRPPRLPRPRPRPLQAPRP: the “shrunken log2 fold change” value was 0.365.

Take RRIRVRPPRLPRPRPRPVFMPRP: the “shrunken log2 fold change” value is -0.113.

For the sequence RRIRERPPRLPRPRPRPKSNPRP, the “shrunken log2 fold change” value is -0.472.

As for RRIRSRPPRLPRPRPRPSHWPRP, the “shrunken log2 fold change” value worked out at 0.337.

In the case of RRIRWRPPRLPRPRPRPQNGPRP, the “shrunken log2 fold change” value stood at 0.00668.

In the case of RRIRKRPPRLPRPRPRPRYQPRP, the “shrunken log2 fold change” value is -0.0143.

With RRIRWRPPRLPRPRPRPLTAPRP, the “shrunken log2 fold change” value was found to be 0.436.

Consider RRIRIRPPRLPRPRPRPMDVPRP, for which the “shrunken log2 fold change” value was -0.361.

On to RRIRGRPPRLPRPRPRPHFGPRP, for which the “shrunken log2 fold change” value came to 0.242.

In the case of RRIRPRPPRLPRPRPRPGIRPRP, the “shrunken log2 fold change” value is 0.105.

On to RRIRVRPPRLPRPRPRPALNPRP, for which the “shrunken log2 fold change” value was -0.142.

Consider RRIRSRPPRLPRPRPRPGSRPRP, for which the “shrunken log2 fold change” value was 0.297.

Regarding RRIRTRPPRLPRPRPRPFYMPRP, the “shrunken log2 fold change” value is -0.369.

Take RRIRCRPPRLPRPRPRPSWVPRP: the “shrunken log2 fold change” value is -0.273.

Consider RRIRNRPPRLPRPRPRPWMDPRP, for which the “shrunken log2 fold change” value is -0.165.

Take RRIRQRPPRLPRPRPRPDLNPRP: the “shrunken log2 fold change” value worked out at 0.0947.

For the sequence RRIRNRPPRLPRPRPRPVFVPRP, the “shrunken log2 fold change” value is -0.123.

Regarding RRIRARPPRLPRPRPRPTGLPRP, the “shrunken log2 fold change” value stood at 0.298.

Consider RRIRMRPPRLPRPRPRPDWHPRP, for which the “shrunken log2 fold change” value was -0.136.

As for RRIRPRPPRLPRPRPRPQHSPRP, the “shrunken log2 fold change” value was -0.161.

For the sequence RRIRHRPPRLPRPRPRPTLNPRP, the “shrunken log2 fold change” value was 0.134.

For RRIRIRPPRLPRPRPRPPWSPRP, the “shrunken log2 fold change” value stood at 0.219.

RRIRLRPPRLPRPRPRPHCTPRP: the “shrunken log2 fold change” value was -0.533.

In the case of RRIRCRPPRLPRPRPRPVRPPRP, the “shrunken log2 fold change” value amounted to 0.504.

On to RRIRKRPPRLPRPRPRPDFKPRP, for which the “shrunken log2 fold change” value is -0.0323.

For the sequence RRIRSRPPRLPRPRPRPIFPPRP, the “shrunken log2 fold change” value was found to be 1.04.

For the sequence RRIRTRPPRLPRPRPRPSMFPRP, the “shrunken log2 fold change” value was -0.46.

Consider RRIRFRPPRLPRPRPRPHCEPRP, for which the “shrunken log2 fold change” value is -0.0995.

As to RRIRYRPPRLPRPRPRPHAGPRP, the “shrunken log2 fold change” value worked out at 0.0561.

With RRIRIRPPRLPRPRPRPWRYPRP, the “shrunken log2 fold change” value was -0.0701.

Regarding RRIRFRPPRLPRPRPRPNLSPRP, the “shrunken log2 fold change” value was -0.259.

Turning to RRIRLRPPRLPRPRPRPAQPPRP, the “shrunken log2 fold change” value turned out to be 0.0855.

On to RRIRKRPPRLPRPRPRPLWRPRP, for which the “shrunken log2 fold change” value was 0.609.

In the case of RRIRVRPPRLPRPRPRPYGVPRP, the “shrunken log2 fold change” value is -0.153.

Regarding RRIRHRPPRLPRPRPRPWMVPRP, the “shrunken log2 fold change” value is -0.0202.

Take RRIRYRPPRLPRPRPRPHCFPRP: the “shrunken log2 fold change” value is -0.165.

Regarding RRIRKRPPRLPRPRPRPEWMPRP, the “shrunken log2 fold change” value was -0.0537.

RRIRCRPPRLPRPRPRPMATPRP: the “shrunken log2 fold change” value was determined as 0.0993.

On to RRIRKRPPRLPRPRPRPGVWPRP, for which the “shrunken log2 fold change” value came to 0.786.

For RRIRQRPPRLPRPRPRPPKTPRP, the “shrunken log2 fold change” value came to 0.113.

As for RRIRQRPPRLPRPRPRPNQKPRP, the “shrunken log2 fold change” value is -0.0966.

In the case of RRIRWRPPRLPRPRPRPQMHPRP, the “shrunken log2 fold change” value is 0.0794.

As for RRIRDRPPRLPRPRPRPTNFPRP, the “shrunken log2 fold change” value was -0.208.

For the sequence RRIRWRPPRLPRPRPRPDCAPRP, the “shrunken log2 fold change” value worked out at 0.97.

In the case of RRIRRRPPRLPRPRPRPYRQPRP, the “shrunken log2 fold change” value was -0.13.

For RRIRDRPPRLPRPRPRPDRAPRP, the “shrunken log2 fold change” value was determined as 0.281.

In the case of RRIRHRPPRLPRPRPRPRIMPRP, the “shrunken log2 fold change” value is -0.577.

With RRIRQRPPRLPRPRPRPTFKPRP, the “shrunken log2 fold change” value was -0.225.

Turning to RRIRHRPPRLPRPRPRPSYAPRP, the “shrunken log2 fold change” value was -0.21.

As for RRIRTRPPRLPRPRPRPYRWPRP, the “shrunken log2 fold change” value is -0.281.

In the case of RRIRRRPPRLPRPRPRPNSYPRP, the “shrunken log2 fold change” value was -0.116.

As for RRIRMRPPRLPRPRPRPPHEPRP, the “shrunken log2 fold change” value was 0.445.

RRIRLRPPRLPRPRPRPDHMPRP: the “shrunken log2 fold change” value was -0.0422.

Regarding RRIRDRPPRLPRPRPRPYDRPRP, the “shrunken log2 fold change” value is -0.0075.

Consider RRIRKRPPRLPRPRPRPGIWPRP, for which the “shrunken log2 fold change” value amounted to 0.362.

Consider RRIRKRPPRLPRPRPRPHWGPRP, for which the “shrunken log2 fold change” value came to 0.209.

Turning to RRIRWRPPRLPRPRPRPRVVPRP, the “shrunken log2 fold change” value worked out at 0.655.

With RRIRKRPPRLPRPRPRPMIDPRP, the “shrunken log2 fold change” value came to 0.21.

Turning to RRIRERPPRLPRPRPRPCYIPRP, the “shrunken log2 fold change” value is -0.0464.

For the sequence RRIRVRPPRLPRPRPRPQWHPRP, the “shrunken log2 fold change” value is -0.311.

On to RRIRERPPRLPRPRPRPAMQPRP, for which the “shrunken log2 fold change” value was determined as 0.0339.

RRIRGRPPRLPRPRPRPQYKPRP: the “shrunken log2 fold change” value was -0.136.

Turning to RRIRIRPPRLPRPRPRPQQKPRP, the “shrunken log2 fold change” value amounted to 0.0242.

As for RRIRLRPPRLPRPRPRPMQCPRP, the “shrunken log2 fold change” value is -0.0717.

In the case of RRIRWRPPRLPRPRPRPFGWPRP, the “shrunken log2 fold change” value worked out at 0.118.

With RRIRCRPPRLPRPRPRPPNTPRP, the “shrunken log2 fold change” value was -0.0497.

For the sequence RRIRDRPPRLPRPRPRPHCGPRP, the “shrunken log2 fold change” value amounted to 0.00511.

As to RRIRQRPPRLPRPRPRPYPTPRP, the “shrunken log2 fold change” value is 0.0734.

As to RRIRFRPPRLPRPRPRPMLSPRP, the “shrunken log2 fold change” value was -0.0375.

As for RRIRHRPPRLPRPRPRPERCPRP, the “shrunken log2 fold change” value was -0.078.

Turning to RRIRHRPPRLPRPRPRPLNHPRP, the “shrunken log2 fold change” value was -0.785.

With RRIRCRPPRLPRPRPRPYCLPRP, the “shrunken log2 fold change” value was -0.442.

With RRIRPRPPRLPRPRPRPPFQPRP, the “shrunken log2 fold change” value was determined as 0.119.

Take RRIRDRPPRLPRPRPRPVPQPRP: the “shrunken log2 fold change” value is 0.0622.

On to RRIRKRPPRLPRPRPRPEYQPRP, for which the “shrunken log2 fold change” value amounted to 0.0313.

As to RRIRCRPPRLPRPRPRPQEMPRP, the “shrunken log2 fold change” value was -0.627.

As to RRIRWRPPRLPRPRPRPERDPRP, the “shrunken log2 fold change” value amounted to 0.128.

As for RRIRVRPPRLPRPRPRPVIAPRP, the “shrunken log2 fold change” value is -0.0291.

RRIRSRPPRLPRPRPRPSILPRP: the “shrunken log2 fold change” value was -0.235.

On to RRIRNRPPRLPRPRPRPKGGPRP, for which the “shrunken log2 fold change” value came out at 0.226.

Take RRIRERPPRLPRPRPRPEPGPRP: the “shrunken log2 fold change” value turned out to be 0.667.

For the sequence RRIRGRPPRLPRPRPRPERFPRP, the “shrunken log2 fold change” value came out at 0.969.

As to RRIRCRPPRLPRPRPRPKAMPRP, the “shrunken log2 fold change” value was 0.234.

On to RRIRLRPPRLPRPRPRPWPKPRP, for which the “shrunken log2 fold change” value was -0.0141.

Consider RRIRNRPPRLPRPRPRPGGRPRP, for which the “shrunken log2 fold change” value is 0.0809.
